The experiment has as its target EtpA^1-606 (Enterotoxigenic Escherichia coli (ETEC)). The experiment can be described thus: dynamic light scattering; Zetasizer, 4°C, 1 mg/mL protein in 20 mM Tris pH 7.5, 150 mM NaCl.

Among the data in article PMC10284417 are stoichiometry N values, retold here.

The stoichiometry N is the number of molecules, sites or subunits per partner or assembly.

EtpA^1-606 (domain or fragment): the stoichiometry N came to 2.
